Experimental data: the supplement of paper PMC9732359
± gives the uncertainty stated by the source.

Assay: protein stability index of a GFP-peptide fusion (yeast GPS) (PSI 1-4); higher = more stable; sorted into four equal gates, so the index is relative within each strain
In short: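 Tiled 17-residue yeast protein peptides were fused downstream of GFP in a plasmid that also expresses Cherry, and the pooled library was carried in yeast. Mid-log cultures in leucine-free medium were sorted into four equal gates by GFP/Cherry fluorescence ratio, and plasmids from each gate were PCR-amplified and Illumina-sequenced, with reads assigned to strains by barcodes. The protein stability index for each peptide was each gate's read frequency times its gate number, summed.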

| Sequence | protein stability index (doa10∆) | protein stability index (pdr5∆) | protein stability index (san1∆) | protein stability index (ubr1∆) |
| --- | --- | --- | --- | --- |
| PNTKDAMSLYHSPFPFN [PRP8] | 2.64 ± 0.049 | 2.55 ± 0.053 | 2.63 ± 0.06 | 2.71 ± 0.036 |
| SVNIAFAISMGYLFKVS [ECM29] | 2.21 ± 0.14 | 2.84 ± 0.13 | 2.83 ± 0.093 | 3.22 ± 0.13 |
| AQADKQDISSSTRVEFE [FAS2] | 3.12 ± 0.081 | 3.17 ± 0.068 | 3.08 ± 0.06 | 3.33 ± 0.055 |
| DELLSQLDLCKLYFQLF [SRP68] | 1.56 ± 0.1 | 1.67 ± 0.11 | 1.46 ± 0.15 | 1.72 ± 0.057 |
| ECKGCDNKIDIYQIHIP [RPB2] | 3 ± 0.044 | 2.87 ± 0.048 | 3.02 ± 0.035 | 2.54 ± 0.032 |
| GPDTKGQLEDFDSELIH [SMC3] | 3.1 ± 0.21 | 3.52 ± 0.18 | – | 3.62 ± 0.22 |
| VLIFFQMTQIMDIMEDF [SNF2] | 1.67 ± 0.083 | 1.52 ± 0.085 | 2.18 ± 0.13 | 2.42 ± 0.091 |
| FAQPVADIENSTSGDPS [SSN2] | – | 3.14 ± 0.23 | 2.9 ± 0.16 | 2.75 ± 0.24 |
| SPRVEKRSFSSTLKSFF [YOR098C/NUP1] | 1.55 ± 0.067 | 2 ± 0.046 | 2.26 ± 0.078 | 1.92 ± 0.043 |
| SVNPSNKPIKRMLSSIL [SWP82] | 2.95 ± 0.065 | 2.99 ± 0.044 | 2.93 ± 0.045 | 2.99 ± 0.037 |
| VEQYKFRETTHSKRELD [BRR2] | 3.27 ± 0.072 | 2.96 ± 0.059 | 2.58 ± 0.054 | 2.73 ± 0.054 |
| GGQRSLIALSLIMALLQ [SMC2] | 1.33 ± 0.056 | 1.52 ± 0.063 | 1.73 ± 0.099 | 2.24 ± 0.036 |
| AVAEAYNNRSLLDFNTA [RPN6] | 3.16 ± 0.081 | 2.98 ± 0.077 | 3.11 ± 0.066 | 3.25 ± 0.11 |
| NNVSFNAKDIQIPVYDT [FAS1] | 2.36 ± 0.041 | 2.49 ± 0.046 | 2.18 ± 0.048 | 2.64 ± 0.041 |
| REHFEKTVAVDSVFEQN [RPL3] | 2.94 ± 0.12 | 2.93 ± 0.18 | 2.12 ± 0.12 | 2.37 ± 0.12 |
| GHPMTKSVYETPKITAA [SEC65] | 2.83 ± 0.17 | 2.63 ± 0.084 | 2.03 ± 0.24 | 1.91 ± 0.062 |
| LISLKLLTFEVTQNVLG [SRB8] | 1.73 ± 0.078 | 1.46 ± 0.072 | 1.28 ± 0.25 | 1.69 ± 0.084 |
| DMANEIILSIDEHHESF [RRP6] | 3.01 ± 0.068 | 2.98 ± 0.093 | 2.95 ± 0.062 | 2.9 ± 0.049 |
| KLTRELEKKFPDRHVIF [RPS7B] | 2.75 ± 0.058 | 2.94 ± 0.049 | 2.99 ± 0.04 | 3.14 ± 0.033 |
| RAYLSHSNRCIVFSKKE [CSN12] | 1.41 ± 0.075 | 1.56 ± 0.062 | 1.13 ± 0.15 | 1.15 ± 0.036 |
| RVEPETFEIPQAHEIVI [SWI3] | 2.53 ± 0.073 | 2.84 ± 0.08 | 2.54 ± 0.079 | 2.94 ± 0.05 |
| AAATFPIAQPATDVEAR [RPL13A] | 2.65 ± 0.05 | 2.38 ± 0.042 | 2.71 ± 0.066 | 2.29 ± 0.04 |
| ITAVHVKIRATGGTRTK [RPS14A] | 1.58 ± 0.05 | 1.63 ± 0.041 | 1.82 ± 0.09 | 1.67 ± 0.042 |
| NADFQKPWFATVNGQAR [FAS1] | 2.41 ± 0.066 | 2.37 ± 0.11 | 2.45 ± 0.082 | 2.87 ± 0.1 |
| GIRYIRLKQVFNRALDQ [NNF1] | 1.79 ± 0.035 | 1.95 ± 0.027 | 2.04 ± 0.036 | 2.12 ± 0.025 |

| Sequence | protein stability index (doa10∆) | protein stability index (pdr5∆) | protein stability index (san1∆) | protein stability index (ubr1∆) |
| --- | --- | --- | --- | --- |
| DEISPELLSKYKEQIIQ [SNU114] | 2.44 ± 0.079 | 2.57 ± 0.08 | 2.42 ± 0.079 | 2.68 ± 0.075 |
| KQENETMQPPYIQERLK [MED11] | 2.88 ± 0.055 | 3.06 ± 0.054 | 3.19 ± 0.04 | 3.02 ± 0.033 |
| LMLEDTDGDSILYYDVL [BRR2] | 2.85 ± 0.074 | 3.17 ± 0.092 | 3.12 ± 0.067 | 3.1 ± 0.058 |
| LEKGNNPSVKQGEVGAV [SWP82] | 2.89 ± 0.076 | 3.13 ± 0.083 | 3.44 ± 0.052 | 2.7 ± 0.074 |
| SLKTKLNSNIRAGVTIP [SNF5] | 2.6 ± 0.077 | 2.72 ± 0.051 | 2.36 ± 0.066 | 2.63 ± 0.047 |
| ENTPEPDLPALEASYSK [SMC4] | 2.36 ± 0.12 | 2.61 ± 0.091 | 3.18 ± 0.068 | 2.99 ± 0.12 |
| PNGHISTKKIQVATKYA [YMR129W/POM152] | 1.86 ± 0.082 | 2.24 ± 0.05 | 1.75 ± 0.067 | 2 ± 0.043 |
| SFNVKENQPFHGIKDIP [AAR2] | 2.73 ± 0.16 | 3.17 ± 0.19 | 2.98 ± 0.11 | 2.34 ± 0.21 |
| FSPVISQSLTSILVIVQ [SWI1] | 1.43 ± 0.048 | 1.66 ± 0.05 | 1.33 ± 0.076 | 1.33 ± 0.04 |
| GLPVGAIMNCADNSGAR [RPL23A] | 1.91 ± 0.053 | 2.28 ± 0.06 | 1.63 ± 0.068 | 1.83 ± 0.055 |
| YAKSEFDNVASVFMPLI [ECM29] | 3.04 ± 0.054 | 2.8 ± 0.049 | 3.08 ± 0.039 | 3.09 ± 0.046 |
| SERIVDCIIRLPVKWET [FAS1] | 2.3 ± 0.089 | 1.97 ± 0.083 | 1.75 ± 0.12 | 2.62 ± 0.056 |
| EMERIVKNLTKYLSDIM [SRP68] | 2.76 ± 0.25 | 2.53 ± 0.099 | – | 2.06 ± 0.074 |
| GNITRGLAVGLALINYG [RPN2] | 1.43 ± 0.17 | 1.22 ± 0.11 | 1.7 ± 0.15 | 1.51 ± 0.086 |
| LFQENDDDDDDDDEVDY [DSN1] | 2.94 ± 0.14 | 2.71 ± 0.1 | 2.97 ± 0.091 | 3.06 ± 0.15 |
| ESLPQYVDFVPMYKELW [POP4] | 2.12 ± 0.061 | 2.45 ± 0.056 | 2.5 ± 0.074 | 2.64 ± 0.048 |
| FVTRKSRKRAKKMTKKA [PRP8] | 3.02 ± 0.075 | 2.91 ± 0.12 | 2.61 ± 0.11 | 2.95 ± 0.12 |
| MENEFFKVQELLHSKPS [NAS6] | 2.2 ± 0.14 | 2.02 ± 0.082 | 2.68 ± 0.14 | 2.3 ± 0.085 |
| VEVLLVNYNSDMIKCFL [NUT1] | 1.58 ± 0.1 | 1.74 ± 0.077 | 1.51 ± 0.17 | 2.02 ± 0.13 |
| LQYGWKVERHIMDNDPV [RPO21] | 1.19 ± 0.069 | 1.21 ± 0.12 | 1.37 ± 0.19 | 1.24 ± 0.098 |
| AHEISQGVYGAVYETLI [BRR2] | 3.33 ± 0.082 | 3.11 ± 0.07 | 3.16 ± 0.061 | 3.37 ± 0.082 |
| TQTEELKFMAASEVATH [PRP8] | 2.38 ± 0.084 | 2.48 ± 0.08 | 2.35 ± 0.081 | 2.66 ± 0.066 |
| THSQTGTQQSNMYTSTQ [SIR4] | 3.03 ± 0.061 | 3.16 ± 0.046 | 2.93 ± 0.051 | 3.08 ± 0.055 |
| KVAKKRLGSFTRAKAKV [RPL36A] | – | 2.64 ± 0.21 | 3.1 ± 0.16 | 2.86 ± 0.29 |
| IPDIGDLPDTEGLELLG [PRP8] | 3.08 ± 0.14 | 3.15 ± 0.15 | 3.35 ± 0.063 | 3.29 ± 0.046 |
